Measured values from US8507245B2, “Site-directed pegylation of arginases and the use thereof as anti-cancer and anti-viral agents” (priority 2009, dated 2013).
Substitutions are numbered along the chain they refer to. In names and notes the source's numbering stands. Where two headings read alike, the source gives them in different places.

Tests used:
[1] = system: HCT-15 human colorectal cancer cells; assay type: in vivo, BALB/c nude mice
Method: Athymic nude BALB/c mice (age of 6-8 weeks) were housed under sterile conditions with 12 hour light-dark cycle and provided with autoclaved feed ad libitum. The mice were acclimated for at least 1 week before the start of experiments. Each nude mouse was implanted with ˜3 mm^3 of in vivo maintained HCT-15 human colorectal cancer cells to the right axilla subcutaneously. When stable palpable tumours of ˜5 mm diameter were developed, the mice were randomly separated into five different groups (Table 6). Intraperitoneal administrations of arginase drugs or control vehicle (PBS) were given twice per week while 5-fluorouracil was given once per week starting from Day 0. Tumour dimensions (L: longest diameter and W: its perpendicular diameter) and body weights were measured on every Mondays, Wednesdays and Fridays with Vernier caliper. Tumour volume was calculated with the formula (½×L×W^2) and no. of fold increase in tumour volume (relative tumour volume) was calculated with reference to Day-0. The results were plotted against time. The mice were euthanized at the end of experiment or when tumour diameter reached 2.5 cm.

HIV-1 strain RF = test: HIV replication (virus inhibition) assay in H9 cells
[2] = system: hepatocellular carcinoma Hep3B cells; assay type: in vivo, BALB/c nude mice; conditions: for effect on tumour growth (tumour volume) vs PBS control: 500 Units/mouse i.p. weekly for 8 weeks, HAI-PEG20 effect from Day 47 (p<0.01); for average body weight: mouse, in vivo, ip
Method: A number of BALB/c nude mice were injected with hepatocellular carcinoma Hep3B cells intraperitoneally (i.p.) and maintained in vivo. Then each of the 30 BALB/c nude mice was injected with ˜1×10^6 of the in vivo maintained cancer cells to the right axilla subcutaneously. When palpable tumours of 5 mm diameter were developed, the mice were separated into three different groups (see Table 3). Drugs or PBS buffer were administered intraperitoneally weekly starting on day 0 for 8 weeks. Body weights and tumour dimensions (L: length of the longer diameter and W: length of the shorter diameter of the tumour) were measured twice a week. Tumour volume (½×L×W^2) was calculated and plotted against time. After 60 days or when tumour diameter reached 2.5 cm, the mice were euthanized. Survival rates of the mice were recorded at the end of the study.

blood arginine = test: Pharmacodynamics: depletion of arginine in BALB/c normal mice; assay type: in vivo; conditions: plasma, single i.p. dose
Method: Pharmacodynamics of Cys^45 pegylated human arginase I and Cys^161 pegylated Bacillus caldovelox arginase were studied using BALB/c normal mice. The study was carried out in conjunction with the pharmacokinetic study (described below). Therefore, the protocol remained the same. Again, the blood samples collected was centrifuged immediately at 13,200 rpm for 5 minutes and the plasma layer were collected for further analysis using the Amino Acid Analyzer (Biochrom 30, Biochrom Ltd., England).

MDA-MB-231 = test: Cell proliferation assay (MTT, Table 11); assay type: cell-based; conditions: MDA-MB-231 breast, 3 days
4T1 = test: Cell proliferation assay (MTT, Table 11); assay type: cell-based, mouse; conditions: 4T1 breast, 3 days
Method: 1×10^5 cells of a mouse metastatic breast cancer cell line (4T1) were injected orthotopically into the No. 4 inguinal mammary fat pad of wild-type BALB/c mice at the age of 6-8 weeks. When the tumors reached an average of 5 mm, the mice were divided into two different treatment groups (Table 7). BCA-PEG20 (250 U/mouse) or control vehicle (PBS) were injected intraperitoneally twice per week starting from Day 0. Body weight was measured every week. After three weeks, the mice were sacrificed and analyzed for the lung metastasis. The number of lung metastases was counted under a dissecting microscope after rinsing with PBS.
Cell Proliferation Assay: For each cancer cell line, cells (5×10^3) in 100 μL culture medium were seeded to the wells of a 96-well plate and incubated for 24 hours by standard method.

[3] = Steady-state kinetics of human arginase I with Mn2+ or Co2+ (DAMO assay); assay type: biochemical; conditions: for Km: sodium phosphate buffer pH 7.4, 25° C.
Method: Diacetylmonoxine (DAMO) assay was used to determine the kinetic parameters of human arginase with different metal cofactors. All enzymatic reactions were carried out at pH 7.4.

[4] = sodium phosphate buffer pH 7.4, 25° C.
Method: Either Bacillus caldovelox arginase (BCA) or the human arginase I (HAI) was expressed as described previously. The purification method was the same as described before except 10 mM of metal ion (CoSO4 or MnSO4) was added into the purified protein elution from Nickel affinity chromatography instead of added before Nickel affinity chromatography. Eluted factions containing the arginase enzyme were incubated with 10 mM metal for 15 min at 50˜55° C., followed by filtration through a 0.45 μm syringe filter. Then the solution was exchanged with storage buffer by ultrafiltration.
The mutant genes were cloned, expressed and purified for detailed studies.

With O=c1[nH]cc(F)c(=O)[nH]1 [5-fluorouracil] the “effect on tumour growth vs control” value ([1]; arginases i.p. twice per week (BCA 500, BCA-PEG20 250 Units/mouse), 5-fluorouracil 10 mg/kg once per week) was “did not show significant tumour suppression” and the “average body weight, last recorded” value ([1]; mouse, in vivo) was 24.5 ± 1.4 g.

B1: HAI-PEG20: Cys^45-specific mono-pegylated 6xHis-tagged human arginase I mutant (C168S/C303S) with single chain mPEG-maleimide (20 kDa) (conjugate, UniProt P05089 1-322, looked up, variant C168S C303S)
Arginase-1: MSAKSRTIGIIGAPFSKGQPRGGVEEGPTVLRKAGLLEKLKEQECDVKDYGDLPFADIPNDSPFQIVKNPRSVGKASEQLAGKVAEVKKNGRISLVLGGDHSLAIGSISGHARVHPDLGVIWVDAHTDINTPLTTTSGNLHGQPVSFLLKELKGKIPDVPGFSWVTPSISAKDIVYIGLRDVDPGEHYILKTLGIKYFSMTEVDRLGIGKVMEETLSYLLGRKKRPIHLSFDVDGLDPSFTPATGTPVVGGLTYREGLYITEEIYKTGLLSGLDIMEVNPSLGKTPEEVTRTVNTAVAITLASFGLAREGNHKPIDYLNPPK
modifications: 20 kDa mPEG-maleimide at Cys45; 6xHis tag
With B1 the “wells displaying cytopathic effect (positive wells/wells inoculated)” value (HIV-1 strain RF; 1 U/mL) was 8/8, the “wells displaying cytopathic effect (positive wells/wells inoculated)” value (HIV-1 strain RF; 10 U/mL) was 6/8 and the “wells displaying cytopathic effect (positive wells/wells inoculated)” value (HIV-1 strain RF; 50 U/mL) was 3/8. For the same molecule, the “IC50 on HIV” value (HIV-1 strain RF; H9 cells, five days post infection, cytopathic effect) was “approximately 37 U/mL”, the “effect on tumour growth (tumour volume) vs PBS control” value [2] was “significantly reduced the rate of tumour growth” and the average body weight [2] was 25.0 ± 0.2 g. The “time at which arginine started to appear after arginase administration” value (blood arginine) was 6.8 ± 2.3 days, the arginine depletion (blood arginine; starting from 6 hr (Day 0)) was “totally depleted” and the ornithine level (blood arginine; stayed at high level up to Day 3) was over 150 µM.

B2: HAI: non-pegylated 6xHis-tagged recombinant human arginase I (protein, UniProt P05089 1-322, looked up)
Arginase-1: B1 Arginase-1 with S168C, S303C
modifications: 6xHis tag
notes: non-pegylated 6xHis-tagged recombinant human arginase I
With B2 the IC50 (MDA-MB-231) was 0.273 U/mL, the “effect on tumour growth (tumour volume) vs PBS control” value [2] was “did not show any significant effect” and the average body weight [2] was 25.5 ± 0.2 g. It also gave an IC50 (4T1) of 0.058 U/mL.

B3: HAI Mn^2+: recombinant human arginase I with Mn^2+ as metal cofactor (protein, UniProt P05089 1-322, looked up)
Arginase-1: B1 Arginase-1 with S168C, S303C
modifications: Mn2+ cofactor
notes: recombinant human arginase I with Mn^2+ as metal cofactor
B3 gave a Km [3] of 1830 µM.

B4: HAI Co^2+: recombinant human arginase I with cobalt replacing manganese as metal cofactor (protein, UniProt P05089 1-322, looked up)
Arginase-1: B1 Arginase-1 with S168C, S303C
modifications: cobalt cofactor
For B4, the “improvement of Km value vs HAI Mn^2+” value ([3]; pH 7.4, 25° C.) was “about 10 fold” and the Km [3] was 190 µM.

B5: BCA mutant V20P Mn^2+ (protein, UniProt P53608 1-299, looked up, variant V20P)
Arginase: MKPISIIGVPMDLGQTRRGPDMGPSAMRYAGVIERLERLHYDIEDLGDIPIGKAERLHEQGDSRLRNLKAVAEANEKLAAAVDQVVQRGRFPLVLGGDHSIAIGTLAGVAKHYERLGVIWYDAHGDVNTAETSPSGNIHGMPLAASLGFGHPALTQIGGYSPKIKPEHVVLIGVRSLDEGEKKFIREKGIKIYTMHEVDRLGMTRVMEETIAYLKERTDGVHLSLDLDGLDPSDAPGVGTPVIGGLTYRESHLAMEMLAEAQIITSAEFVEVNPILDERNKTASVAVALMGSLFGEKLM
modifications: Mn2+
For B5, the Km [4] was about 1290 µM.

B6: BCA mutant V20P Co^2+ (protein, UniProt P53608 1-299, looked up, variant V20P)
Arginase: B5 Arginase
modifications: Co2+
Work on B6 yielded a Km [4] of about 180 µM.

B7: BCAWTMn^2+: wild-type Bacillus caldovelox arginase with Mn^2+ (protein, UniProt P53608 1-299, looked up)
Arginase: B5 Arginase with P20V
modifications: Mn2+
Molecule B7 has a Km [4] of about 3200 µM.
